Patent publication US20230348603A1 (VERSEAU THERAPEUTICS, published 2023)

T1: Human VSIG4-L-His (human, UniProt Q9Y279 20-283)
T1 construct: long isoform ECD with His tag; also called hVSIG4-L
T1 sequence: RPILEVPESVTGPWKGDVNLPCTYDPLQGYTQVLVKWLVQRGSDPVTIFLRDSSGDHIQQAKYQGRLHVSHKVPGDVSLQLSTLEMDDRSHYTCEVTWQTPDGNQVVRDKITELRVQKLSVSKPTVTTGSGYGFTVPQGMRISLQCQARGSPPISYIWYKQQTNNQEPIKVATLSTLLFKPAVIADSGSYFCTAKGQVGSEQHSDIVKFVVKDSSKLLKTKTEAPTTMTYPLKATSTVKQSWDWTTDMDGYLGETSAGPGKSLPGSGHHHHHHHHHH

T2: Human VSIG4-S-His (human, UniProt Q9Y279 20-283)
T2 construct: short isoform ECD with His tag; also called hVSIG4-S; VISG4-S-His
T2 sequence: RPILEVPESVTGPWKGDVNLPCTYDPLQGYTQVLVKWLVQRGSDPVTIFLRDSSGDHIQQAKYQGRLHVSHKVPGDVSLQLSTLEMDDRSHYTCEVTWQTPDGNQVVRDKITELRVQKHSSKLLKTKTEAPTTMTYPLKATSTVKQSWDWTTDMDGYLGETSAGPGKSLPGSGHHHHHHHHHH

T3: Cynomolgus Monkey VSIG4-L-His (cynomolgus monkey)
T3 construct: ECD with His tag; also called cyVSIG4-L; cyno VSIG4-L-His
T3 chain: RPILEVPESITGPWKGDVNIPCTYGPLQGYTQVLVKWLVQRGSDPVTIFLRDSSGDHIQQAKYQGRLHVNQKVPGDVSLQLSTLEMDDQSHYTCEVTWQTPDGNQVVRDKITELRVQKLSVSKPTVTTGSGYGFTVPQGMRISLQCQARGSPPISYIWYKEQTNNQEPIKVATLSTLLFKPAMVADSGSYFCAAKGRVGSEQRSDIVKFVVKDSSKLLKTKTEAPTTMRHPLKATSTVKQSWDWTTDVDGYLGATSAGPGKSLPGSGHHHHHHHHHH


Columns and labels:
Human VSIG4-L-His [1] = biological target: T1, Human VSIG4-L-His; experiment: BLI (Octet), mouse IgG on AMC sensor, antigen 100 nM;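 further: octet Red384 biolayer interferometry with immobilized mouse hybridoma antibodies, 300 s association then 300 s dissociation at 30 °C, isotype-control reference subtraction, 1:1 global fit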
Method: (§1) The binding affinity of murine hybridoma antibodies was determined by biolayer interferometry (BLI), using a ForteBio Octet® Red384 system. […] Biosensors were rehydrated prior to the assay in kinetics buffer for 10 minutes and then equilibrated in kinetics buffer for 60 seconds. Antibody was then immobilized for 300 seconds followed by a 120 second baseline wash in fresh kinetics buffer, 300 second analyte association, and 300 second dissociation in the same buffer wells as the baseline wash step. All assay steps occurred at 30° C. with an acquisition rate of 5.0 Hz. Processing parameters included reference subtraction, with mouse IgG1 or mouse IgG2a used as an isotype control for reference sensor subtraction. Y-axis data was aligned to the average baseline step for the last 5 seconds and all steps were inter-step corrected to the start of the dissociation step. High frequency noise was removed using Savitzky-Golay filtering and final fitting was a 1:1 global binding model to both association and dissociation.

Human VSIG4-S-His = biological target: T2, Human VSIG4-S-His; experiment: as above
Method: as §1

[2] = biological target: T3, Cynomolgus Monkey VSIG4-L-His; experiment: as above
Method: as §1

Human VSIG4-L-Fc [3] = biological target: T4, Human VSIG4-L-Fc (human); experiment: ELISA, Fab P.E. 1:5 on coated antigen;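 further: mouse Fab P.E. samples in 1% skimmed milk PBS, bound to antigen-coated wells for 1 h at room temperature, read as absorbance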
T4 construct: also called hVSIG4-L-Fc; hVSIG4-L
Method: (§2) Coated microplates were blocked with dried skimmed milk at 4% in PBS. P.E. samples of the mouse unique Fab sequences were diluted 1:5 in assay buffer (1% dried skimmed milk in PBS), and 100 μl of diluted sample was added onto the coated wells and incubated for one hour at room temperature. […] Optical density (OD) at 450 nm was determined using a standard absorbance microplate reader.

Human VSIG4-S-Fc = biological target: T5, Human VSIG4-S-Fc (human); experiment: ELISA, Fab P.E. 1:5 on coated antigen;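 further: mouse Fab P.E. samples in 1% skimmed milk PBS, bound to antigen-coated wells for 1 h at room temperature, read as absorbance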
T5 construct: short isoform ECD fused to human Fc1; also called hVSIG4-S
Method: as §2

[4] = biological target: T3, Cynomolgus Monkey VSIG4-L-His; experiment: ELISA, Fab P.E. 1:5 on coated antigen;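 further: mouse Fab P.E. samples in 1% skimmed milk PBS, bound to antigen-coated wells for 1 h at room temperature, read as absorbance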
Method: as §2

Human VSIG4-L-His [5] = biological target: T1, Human VSIG4-L-His; experiment: SPR (Biacore T200), Fab P.E. 1:5 over immobilised antigen
Method: Off-rate values of the mouse unique Fab clones were determined using surface plasmon resonance (SPR) in Biacore™ T200 equipment (GE Healthcare, Chicago, IL). […] The immobilization was performed in accordance with a method provided by Biacore and by using the NHS/EDC kit (GE Healthcare, Chicago, IL). […] Sixty μl of Fab P.E. samples, diluted 1:5 in HBS-EP+ assay buffer (0.1 M HEPES, 1.5 M NaCl, 0.03 M EDTA and 0.5% v/v Surfactant P20), were injected and passed through the flow cells at a flow rate of 30 μl/min. After binding of the samples to VSIG4 protein, the off-rate was monitored for a period of five minutes. The flow cell surface was regenerated by a double injection of 10 μl of 1 mM glycine at pH 1.5 in 1 M sodium chloride at 30 μl/min. Off-rate analysis was done using the BIAevaluation software (GE Healthcare, Chicago, IL) and using a 1:1 dissociation kinetic fit curve.

Human VSIG4-L-Fc [6] = biological target: T4, Human VSIG4-L-Fc; experiment: BLI cross-blocking on hVSIG4-L-Fc, competitor 12A12 first
Method: (§3) All assay steps occurred at 30° C. with an acquisition rate of 5.0 Hz.

Human VSIG4-L-Fc [7] = biological target: T4, Human VSIG4-L-Fc; experiment: BLI cross-blocking on hVSIG4-L-Fc, competitor 14C05 first
Method: as §3

T4 sequence (chain, as listed by the source limits assumed): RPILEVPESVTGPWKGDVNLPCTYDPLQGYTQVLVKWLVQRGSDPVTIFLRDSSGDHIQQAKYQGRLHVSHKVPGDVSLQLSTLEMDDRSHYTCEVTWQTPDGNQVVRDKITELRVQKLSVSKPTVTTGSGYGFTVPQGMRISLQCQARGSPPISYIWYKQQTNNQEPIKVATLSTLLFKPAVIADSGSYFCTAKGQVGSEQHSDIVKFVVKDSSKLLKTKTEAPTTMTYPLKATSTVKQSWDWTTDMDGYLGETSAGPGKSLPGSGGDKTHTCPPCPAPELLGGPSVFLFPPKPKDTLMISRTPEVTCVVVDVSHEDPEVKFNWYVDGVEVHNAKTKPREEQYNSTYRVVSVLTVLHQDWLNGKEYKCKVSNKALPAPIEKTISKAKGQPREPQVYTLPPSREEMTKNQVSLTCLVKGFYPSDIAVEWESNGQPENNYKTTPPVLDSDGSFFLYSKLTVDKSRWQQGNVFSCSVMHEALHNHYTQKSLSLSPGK
T5 sequence (chain, as listed by the source limits assumed): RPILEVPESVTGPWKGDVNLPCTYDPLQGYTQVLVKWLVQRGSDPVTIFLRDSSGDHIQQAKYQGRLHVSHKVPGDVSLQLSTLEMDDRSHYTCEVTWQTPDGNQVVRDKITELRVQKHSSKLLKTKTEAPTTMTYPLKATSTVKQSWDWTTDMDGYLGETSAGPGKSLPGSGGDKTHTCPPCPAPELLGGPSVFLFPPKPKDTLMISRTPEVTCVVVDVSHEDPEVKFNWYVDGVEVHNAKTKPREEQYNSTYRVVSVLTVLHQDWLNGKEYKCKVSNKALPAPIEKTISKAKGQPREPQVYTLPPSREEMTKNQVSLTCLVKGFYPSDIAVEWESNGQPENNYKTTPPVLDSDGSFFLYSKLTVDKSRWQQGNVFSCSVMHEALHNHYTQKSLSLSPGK

Row | Kd (Human VSIG4-L-His [1]) | Kd (Human VSIG4-S-His) | Kd [2] | Binder | other results
1 | 1.72 nM | 5.86 nM | 2.02 nM | 14F8.H6 murine hybridoma antibody (antibody, V domains shown, murine IgG purified from hybridoma supernatant) VH: EVHLVESGGALVKPGGSLKLSCTASGFTFSNSVMSWIRQTPEKRLEWVATIGSGGTYIYYPDSVKGRFTISRDNSKNTLFLQMTSLRSEDTALYYCARHIYGYDVVDYWGQGTTLTVST VL: DIVMTQSHRFMSTSVGDRVSITCKASHDVSNVVAWYQQKPGQSPELLIYSASYRYTGVPARFTGSGSGTDFTFTISSVQAEDLAVYFCQQHFTTPLTFGAGTSLEVR | –
2 | 2.13 nM | 6.95 nM | 1.56 nM | 10E8.B6 murine hybridoma antibody (antibody, V domains shown, murine IgG purified from hybridoma supernatant) VH: EVQLQQSGPELMKPGDSVKMSCKASGYTFTDYYMDWVKQSHGKSLEWIGYIYPNIDFTTYNQKFKGKATLTVDKSSNTAYMELHSLTSEDSAVYYCTRRDLPLHGSAYYFDYWGQGTTLTVSS VL: DIVMSQSPSSLAVSAGEKVTMSCKSSQSLLNSRTRKNYLAWYQQKPGQSPKLLIYWASTRESGVPDRFTGSGSGTDFTLTISSVQAEDLAVYYCKQSYDLFTFGSGTKLEIK | –
3 | 6.83 nM | 21.5 nM | 6.45 nM | 1H7.C7 murine hybridoma antibody (antibody, V domains shown, murine IgG purified from hybridoma supernatant) VH: EVQLVESGGGLVMPGGSRRLSCAASGFTFSDSGMYWVRQAPEKGLEWIAYISSGSDTLYYAATVKGRFTISRDNAKNTLFLQMTSLRSEDTAIYYCAKRNFYGYDVMDYWGQGTSVTVSS VL: DIVMTQSHKFMSTSVGDRVSITCKASQDVSNVVAWYQQKPGQSPKLLIYSASYRYTGVPDRFAGSGSGTDFTFTISSVQAEDLAVYYCQQHYSTPWTFGGGTKLEIK | –
4 | 0.965 nM | 5.16 nM | 1.23 nM | 9A10.C4 murine hybridoma antibody (antibody, V domains shown, murine IgG purified from hybridoma supernatant) VH: EVQLVESGGALVQPGGSLKLSCVASGFSFSNCVMSWVRQSPEKRLEWVATIGSDGSYSYYQDNVKGRFTVSRDNAKNTLYLQMSSLGSEDTALYYCGRHIYGYDVVDYWGQGTSLTVSS VL: DIVMTQSHKFMSTSVGDRVTITCKASQDVSNVVAWFQQKPGQSPKLLIYSASYRFGGVPDRFTGSGSGTDFTFTISSVQAEDLAVYYCQQHYDTPLTFGTGTTLELK | –
5 | 1.76 nM | 4.99 nM | 1.4 nM | 13E11.A4 murine hybridoma antibody (antibody, V domains shown, murine IgG purified from hybridoma supernatant) VH: EVQLVESGGALVKPGGSLKLSCVASRFNLNNCVMSWIRQTPEKRLEWVATIDSGSIYTYYPDSVKGRFTISRDNAKNTLYLQMSSLRSEDTAVYYCVRHIYGYDVVDNWGQGTTLTVAS VL: DIVMTQSHKFMSTSVGDNVSITCKASQYVSNTVAWYQQKPGQSPKLLIYSASYRNTGVPDRFTGSGSGTNFTFTISNMQAEDLAFYYCQQHYTSPLTFGAGTKLELK | –
6 | 1.03 nM | 3.29 nM | 1.13 nM | 1C6.D6 murine hybridoma antibody (antibody, V domains shown, murine IgG purified from hybridoma supernatant; also called 1C6.D6b) VH: QVQLQQPGAEMVRPGTSVKLSCKASGYTFTSYWMHWVKQRPGQGLEWIGKIDPSHNKTHYIQKFEDKATLTVDKSSSTAYMHLNSLTSEDSAVYYCVTWDGDFLYWGQGTLVTVSA VL: NIVLTQSPASLTVSLGQRATISCRASESVDSYGNSFMHWYQQKPGQPPKLLIYITSNLQSGVPARFSGGGSRTDFTLTIDPVEADDAATYYCQQNNEDPWTFGGGTKLEIK | –
7 | 0.472 nM | 2.87 nM | 0.802 nM | 16F6.E1 murine hybridoma antibody (antibody, V domains shown, murine IgG purified from hybridoma supernatant; also called 16F6.H6) VH: QVQLQQPGAEMVRPGASLKLSCKASGYTFTSYWMHWVKQRPGQGLEWIGKIDPSKNTTHYNQNFRDKATLTVDRSSSTAYMQLNSLTSEDSAVYFCVTWDGDFTYWGQGTLVTISA VL: NIVLTQSPPSLAVSLGQRATISCRASESVDSYGNSFMHWYQQKPGQPPKLLIYLASNLESGVPARFSGSGSRTDFTLTIDPVEADDAATYFCHQNNEDPWTFGGGTKLEIK | –
8 | 0.475 nM | 0.505 nM | 0.435 nM | 5D2.C8 murine hybridoma antibody (antibody, V domains shown, murine IgG purified from hybridoma supernatant) VH: EVKLVESGGGLVKPGGSLKLSCAVSGFTFSNSAMSWVRQTPAKRLEWVAYISISGDNTYYPDSVKGRFTISRDNAKNTLYLQMSSLRSEDTAMYYCARRGYDYDGFTHWGQGTLVTVSA VL: DILLTQSPAILSVSPGERVSFSCRASQNIGTSIHWYQQRTNGSPRLLIKYASQSISGIPSRFSGSGSGTDFTLSINSVESEDIADYYCQQSYSWPLTFGTGTQLELK | –
9 | – | – | – | 16E03 mouse Fab (periplasmic extract) (Fab, V domains shown, mouse Fab with C-terminal His6-c-myc tag) VH: QVQLQQSGAELARPGASVKMSCKASGYTFTSYTMHWIKQRPGQGLEWIGYINPSSGHTYYNQKFKDKATLTPDKSSSTAYMQLTSLTSEDSAVYYCARRIPTAYAMDYWGQGTSVTVSS VL: EIQMTQSHKFMSTSVGDRVSITCKASQDVGTAVAWYQQKPGQSPKLLIYWASTRHTGVPDRFTGSGSGTDFTLTISNVQSEDLADYFCQQYSSYPLTFGAGTKLELK | ELISA OD450 (Human VSIG4-L-Fc [3]): 4.43 OD450; ELISA OD450 (Human VSIG4-S-Fc): 4.3 OD450; ELISA OD450 [4]: 0.21 OD450; koff (Human VSIG4-L-His [5]): 0.013 s⁻¹
10 | – | – | – | A2 anti-VSIG4 antibody, human IgG4 (S228P) kappa (antibody, V domains shown, variable regions from U.S. Pat. Publ) VH: QVTLKESGPTLVKPTQTLTLTCTFSGISLTTSGMGVGWIRQPPGKALEWLADIFWDDNKYYNPSLKSRLTITKDTSKNQVVLTMTNMDPVDTATYYCVRVYYKNDGYFDVWGKGTTVTVSS VL: DIVLTQSPLSLPVTLGQPASISCRASKSVTTSGYSFMHWYQQRPGQSPRLLIYLASNLEPGVPDRFSGSGSGTDFTLKIFRVEAEDVGVYYCQQSGELPYTFGQGTKLEIKR | binding signal (nm shift) (Human VSIG4-L-Fc [6]): 0.6 nm; binding signal (nm shift) (Human VSIG4-L-Fc [7]): 0.57 nm
11 | – | – | – | 15C04 mouse Fab (periplasmic extract) (Fab, V domains shown, mouse Fab with C-terminal His6-c-myc tag) VH: QIQLQESGPSLVRPSQTLSLTCSVTGDSITSGYWNWIRKFPGDKLEYLGYISYSGFTYYNPSLKSRISITRDTSKNQYYLQLNSVTTEDTATYYCASSYYGSSLGFPYWGQGTLVTVSA VL: DVVMTQTPLSLPVSLGDQASISCRSSQSLVHSNGNTYLHWYLQKPGQSPKLLIYKVSNRFSGVPDRFSGSGSGTDFTLKISRVEAEDLGVYFCSQSTHVPWTFGGGTKLEIK | ELISA OD450 (Human VSIG4-L-Fc [3]): 4.21 OD450; ELISA OD450 (Human VSIG4-S-Fc): 0.06 OD450; ELISA OD450 [4]: 0.05 OD450; koff (Human VSIG4-L-His [5]): 0.0019 s⁻¹
